Test results published in paper PMC4869107, “In vitro flow cytometry-based screening platform for cellulase engineering” (Scientific Reports, 2016).

What follows are substances tested on T1, Cc1cc(=O)oc2cc(O[C@@H]3O[C@H](CO)[C@@H](O[C@@H]4O[C@H](CO)[C@@H](O)[C@H](O)[C@H]4O)[C@H](O)[C@H]3O)ccc12 (assay: purified protein). Conditions: potassium phosphate pH 7.2, 30 °C (general assay; kinetics by cited protocol).
T1 construct: 604 residues, ~69 kDa; expressed in E. coli BL21 Gold (DE3)
Type: biochemical, uncultured bacterium

| Substance | Km | kcat | kcat/Km |
| --- | --- | --- | --- |
| CelA2 (CelA2-WT) (uncultured bacterium; H288F/N273D/N468S) | 9.66 (±1.19) μM | 0.0253 ± 0.000767 s⁻¹ | 2620 M⁻¹ s⁻¹ |
| CelA2 (CelA2-WT) (uncultured bacterium; H288F) | 8.95 (±1.62) μM | 0.00833 ± 0.000367 s⁻¹ | 933 M⁻¹ s⁻¹ |
| CelA2 (CelA2-WT) (uncultured bacterium) | 48.37 (±2.43) μM | 0.00183 ± 0.00035 s⁻¹ | 33.3 M⁻¹ s⁻¹ |
